Source: patent US20090117107A1

Target: rRANKL (Cambrex) (UniProt O14788)
Assay: cell-based or functional assay

Chain of UniProt O14788 (O14788 140-317 limits assumed): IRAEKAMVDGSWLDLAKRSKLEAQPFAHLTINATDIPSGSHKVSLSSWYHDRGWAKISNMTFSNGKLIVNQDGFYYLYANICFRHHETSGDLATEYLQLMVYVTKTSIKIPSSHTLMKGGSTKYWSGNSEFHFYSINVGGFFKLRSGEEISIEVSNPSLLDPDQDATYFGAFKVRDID

rRANKL-induced OC differentiation in OCP-RASF coculture, αvβ3 integrin cELISA luminescent readout (ng/mL rRANKL inhibited by 22 ng/mL rOPG): < 7.5 | rRANKL-induced OC differentiation in OCP-RASF coculture, αvβ3 integrin cELISA luminescent readout (ng/mL rRANKL inhibited by 66 ng/mL rOPG): < 15
Substance: Recombinant OPG (R&D cat185-05-025) (from UniProt O00300 22-401) (receptor)
